Reference: patent US20040002450A1, “Y17 - isolated molecules comprising epitopes containing sulfated moieties, antibodies to such epitopes, and uses thereof” (priority 2000, published 2004)

Key:
[1] = system: glycocalicin, platelet lysate, KG-1 cell lysate, Raji cell lysate; experiment: Western blot on glycocalicin and cell lysates; format: binding, human
Method: Antibodies against GPIbα (CD42b) recognize platelet lysate and glycocalicin and but not KG-1 cell lysate (a Y1 binding positive myeloid cell line) or Raji cell lysate (a B cell line that is negative for Y1 binding at concentrations at which KG-1 cells are positive for Y1 binding). […] (FIG. 20).
The nitrocellulose membrane was blocked using 5% skim milk for one hour at room temperature. The membrane was then washed 3 times for 5 minutes each with 0.05% Tween 20 in PBS at room temperature. The membrane was incubated with 5 μg/ml Y1-biotin (or 181-biotin) in 2% skim milk in PBS for one hour at room temperature. The membrane was then washed 3 times for 5 minutes each with cold 0.05% Tween 20 in PBS in the cold room (about 4 to about 10° C.). The membrane was then incubated in the cold room with a 1:1000 dilution of SAV-HRP (streptavidin-HRP) (at a final concentration of […]) in 2% skim milk, 0.05% Tween. The dilution was carried out at room temperature (about 25° C.), then the diluted SAV-HRP was cooled on ice for 10-15 minutes before use. The incubation was carried out for 1 hour with gentle shaking. After the incubation with SAV-HRP, the membrane was washed, as above. The membrane was then incubated with Super Signal mixture (Pierce) for 5 minutes as directed in the commercial protocol, then excess solution was dried. […]

[2] = system: platelet-rich-plasma (PRP); experiment: Ristocetin-induced aggregation of platelet-rich-plasma after scFv preincubation; format: cell-based, human; conditions: for % inhibition: ristocetin
Method: The effect of Y1 (scFv) on aggregation of platelet-rich-plasma (PRP) was tested at various concentrations of Y1. PRP was pre-incubated with Y1 scFv, Y17 scFv, or a control sTM-1cFv for 4 min at 37° C. before being exposed to ristocetin, an inducer of platelet agglutination and aggregation. A reversible inhibitory effect was observed when scFv was added to PRP prior to the addition of ristocetin, and it was dose dependent.
Blood was collected into a tube containing 3.8% sodium citrate. Platelet-rich plasma was prepared by centrifugation at 250×g for 10 minutes.
For platelet aggregation studies, platelet rich plasma (PRP) and washed platelets were stirred at 500 rpm at 37° C. in whole blood Lumiaggregometer (Chronolog, Havertown, Pa.). The difference in light transmission through the platelet suspension and suspending medium was taken as 100% aggregation. The effect of Y1 on platelet aggregation was evaluated by addition of different concentration of Y1 before the addition of agonist, and the effect was recorded for four minutes.

Jurkat cells = experiment: FACS binding to Jurkat cells; design: species or system human; conditions: 1 μg scFv-Y1 versus 5 ng IgG-Y1; two-step staining
Description: The present invention is directed to Y1 and Y17 multimers prepared by any known method in the art. A preferred method of forming multimers, and especially dimers, employs the use of cysteine residues to form disulfide bonds between two monomers. In this embodiment, dimers are formed by adding a cysteine on the carboxyl terminus of the scFvs (referred to as Y1-cys scFv or Y1 dimer) in order to facilitate dimer formation. After the DNA construct was made (See Example 2D and 6D) and used for transfection, Y1 dimers were expressed in a production vector and refolded in vitro. The protein was analyzed by SDS-PAGE, HPLC, and FACS. […] Two peaks were detected by SDS-PAGE (non-reduced) and by gel filtration. The peaks were collected separately and analyzed by FACS. […] Conditions for dimer refolding were determined, and material comprising >90% dimers (mg quantities) was produced after subsequent dialysis, chromatographic, and gel filtration steps. […]
FACS analysis was performed on Jurkat cells using a “three step staining procedure.” First, crude extracts or purified unlabeled scFv are stained, then mouse anti-myc antibodies, and finally, FITC— or PE-conjugated anti-mouse antibodies. […] After the final staining step, cells were fixed by re-suspending in PBS, 1% BSA, 2% formaldehyde, and then read by FACS (Becton-Dickinson).

KG-1 cells = experiment: FACS and binding competition on KG-1 cells (Y1 forms and multimers); design: species or system human; conditions: 5 μg and 10 μg
Description: To compare the binding of the scFv monomer (also referred to as CONY1) with the Y1 dimer, binding competition experiments were done in vitro on KG-1 cells. In addition, these experiments also compared the binding of the full Y1 IgG to the scFv Y1 monomers. To perform this study, a Y1 IgG was labeled with biotin.
In a preferred method, tetramers are formed via a biotin/streptavidin association. A novel fermentation construct that is capable of being enzymatically labeled with biotin (referred to herein as Y1-biotag or Y1-B) was created. A sequence that is a substrate for the BirA enzyme was added at the Y1C-terminus. The BirA enzyme adds a biotin to the lysine residue within the sequence. Y1-biotag was expressed in E. coli. The inclusion body material was isolated and refolded. The purity of the folded protein was >95%, and >100 mg were obtained from a 1-L culture (small-scale, non-optimized conditions). […] Nevertheless, this construct offered the advantage of specific biotinylation in which the binding site of the molecule remains intact. Further, each molecule is labeled by only one biotin—each molecule receives one biotin on the carboxyl end.
Limiting labeling to one biotin/molecule in a desired location enabled production of tetramers with streptavidin. The tetramers were formed by incubating Y1-B with steptavidin-PE. […]

[3] = system: platelets, KG-1, Raji and T2 cells; experiment: FACS binding profile on platelets and human cell lines

B1: Y1 scFv: fully human scFv clone binding platelets and myelogenous leukemia cells; SEQ ID NO: 25, heavy chain CDR3 SEQ ID NO: 8 (protein, listed as Homo sapiens)
scFv: MKYLLPTAAAGLLLLAAQPAMAEVQLVESGGGVVRPGGSLRLSCAASGFTFDDYGMSWVRQAPGKGLEWVSGINWNGGSTGYADSVKGRFTISRDNAKNSLYLQMNSLRAEDTAVYYCARMRAPVIWGQGTLVTVSRGGGGSGGGGSGGGGSSELTQDPAVSVALGQTVRITCQGDSLRSYYASWYQQKPGQAPVLVIYGKNNRPSGIPDRFSGSSSGNTASLTITGAQAEDEADYYCNSRDSSGNHVVFGGGTKLTVLGAAAEQKLISEEDLNGAA
For B1, the “recognition of glycocalicin, platelet lysate, KG-1 and Raji cell lysate” value [1] was “recognized both glycocalicin, platelet lysate, and KG-1 cells, but not Raji cell extract”, the “effect on ristocetin-induced platelet aggregation in PRP (in words)” value ([2]; 25 μg/ml) was “no significant inhibition” and the “% inhibition” value ([2]; scFv 25 μg/ml, PRP) was 13%. For the same molecule, the “% aggregation” value ([2]; scFv 25 μg/ml, PRP, ristocetin = 100%) was 87%, the “% inhibition” value ([2]; scFv 50 μg/ml, PRP, first 4 minutes) was 80% and the “fold more molecules needed for a level of detection similar to IgG-Y1” value (Jurkat cells) was “approximately 10^3 fold”. For the same molecule, the “competition with Y1 IgG-Biotin (50 ng)” value (KG-1 cells) was “partially competed” and the “binding to Raji and T2 cells” value [3] was “do not bind”.
